# Measurements as given in US20210292392A1 (TSB THERAPEUTICS BEIJING, published 2021).
# Biological target: receptor-binding domain (RBD) of the spike protein of SARS-CoV-2 (SARS-CoV-2, UniProt P0DTC2 319-541)
# Experiment: not given
row,Binder,Kd [nM]
1,"P5A-3C8 (antibody, human IgG1, kappa, V domains shown) VH: EVQLVESGGGLIQPGGSLRLSCAASGFTVSSNYMSWVRQAPGKGLEWVSFIYSGGSTYYADSVKGRFTISRDNSKNTLYLQMNSLRAEDTAVYYCARDLQEHGMDVWGQGTTVTVSS VL: DIQLTQSPSSLSASVGDRVTITCRASQGISSYLAWYQQKPGKAPKLLIYAASTLQSGVPSRFSGSGSGTDFTLTISSLQPEDFATYYCQHLNSYPPGYTFGQGTKLEIKR",1.3
2,"P22A-1D1 (antibody, human IgG1, kappa, V domains shown) VH: EVQLVESGGGLIQPGGSLRLSCAASGFTVSSNYMSWVRQAPGKGLEWVSVIYSGGSTYYADSVKGRFTISRDNSKNTLYLQMNSLRAEDTAVYYCARDRDYYGMDVWGQGTTVTVSS VL: DIQLTQSPSFLSASVGDRVTITCRASQGISSYLAWYQQKPGKAPKLLIYAASTLQSGVPSRFSGSGSGTEFTLTISSLQPEDFATYYCLHLNSYRTFGLGTKVEIKR",5.79
3,"P5A-1B8 (antibody, human IgG1, kappa, V domains shown) VH: EVQLVESGGGLIQPGGSLRLSCAASGFTVSSNYMSWVRQAPGKGLEWVSVIYPGGSTFYADSVKGRFTISRDNSKNTLYLQMNSLRAEDTAVYYCARETLAFDYWGQGTLVTVSS VL: DIQLTQSPSFLSASVGDRVTITCRASQGISSYLAWYQQKPGKAPKLLIYAASTLQSGVPSRFSGSGSGTEFTLTISSLQPEDFATYYCQQLNSYPPAFGGGTKVEIKR",4.28
4,"P5A-3C12 (antibody, human IgG1, kappa, V domains shown) VH: QITLKESGPTLVKPTQTLTLTCTFSGFSLSTSGVGVGWIRQPPGKALEWLALIYWDDDKRYSPSLKSRLTITKDTSKNQVVLTMTNMDPVDTATYYCAHSLFLTVGYSSSWSPFDYWGQGTLVTVSS VL: not shown",8.47
5,"P5A-1D2 (antibody, human IgG1, lambda, V domains shown) VH: EVQLVESGGGLIQPGGSLRLSCAASGFIVSSNYMSWVRQAPGKGLEWVSIIYSGGSTYYADSVKGRFTISRDNSNNTLYLQMNSLRAEDTAVYYCARALQVGATSDYFDYWGQGTLVTVSS VL: QSVLTQPPSVSGAPGQRVTISCTGSSSNIGAGYDVHWYQQLPGTAPKLLIYGNSNRPSGVPDRFSGSKSGTSASLAITGLQAEDETDYYCQSCDSSLSVVVFGGGTKLTVLG",14
6,"P2B-1A10 (antibody, human IgG1, kappa, V domains shown) VH: EVQLVESGGGLIQPGGSLRLSCAASGFTVSSNYMSWVRQAPGKGLEWVSVIYSGGSTYYADSVKGRFTISRDNSKNTLYLQMNSLRAEDTAVYYCAREGPKSITGTAFDIWGQGTIVTVSS VL: DIQMTQSPSSLSASVGDRVTITCQASQDISNYFNWYQQKPGKAPKLLIYDASNLETGVPSRFSGSGSGTDFTFTISSLQPEDIATYYCQQYDNLPMYTFGQGTKLEIKR [P2B-1A10, listing 1 of 2 here]",38.4
7,"P5A-2G9 (antibody, human IgG1, lambda, V domains shown) VH: QVQLVESGGGVVQPGRSLRLSCAASGFTFSSYGMHWVRQAPGKGLEWVAVIWYDGSNKYYADSVKGRFTISRDNSKNTLYLQMNSLRAEDTAVYYCARWFHTGGYFDYWGQGTLVTVSS VL: QPVLTQPPSSSASPGESARLTCTLPSDINVSSYNIYWYQQKPGSPPRYLLYYYSDSDKGQGSGVPSRFSGSKDASANTGILLISGLQSEDEADYYCMIWPSNALYVFGTGTKVTVLG",15.9
8,"P5A-2G7 (antibody, human IgG1, lambda, V domains shown) VH: QVQLQESGPGLVKPSETLSLTCTVSGDSVSSGSYYWSWIRQPPGKGLEWIGYIYYSGSTNYNPSLKSRVTISVDTSKNQFSLKLSSVTAADTAVYYCARERCYYGSGRAPRCVWFDPWGQGTLVTVSS VL: QSALTQPASVSGSPGQSITISCTGTSSDVGGYNYVSWYQQHPGKAPKLMIYDVSNRPSGVSNRFSGSKSGNTASLTISGLQAEDEADYYCSSYTSSSTLVVFGGGTKLTVLG",3.95

# Biological target: T1, full length spike (S) protein of SARS-CoV-2 (SARS-CoV-2, UniProt P0DTC2 14-1273)
# Experiment: cell-based or functional assay
Binder,"IC50, pseudovirus neutralization [µg/mL]",Neutralizing activity (%) Mean at 0.0228624 µg/ml [%],Neutralizing activity (%) Mean at 0.0685871 µg/ml [%],Neutralizing activity (%) Mean at 0.2057613 µg/ml [%],Neutralizing activity (%) Mean at 0.6172839 µg/ml [%],Neutralizing activity (%) Mean at 1.851852 µg/ml [%],Neutralizing activity (%) Mean at 5.555555 µg/ml [%],Neutralizing activity (%) Mean at 16.66667 µg/ml [%],Neutralizing activity (%) Mean at 50 µg/ml [%]
"P2A-1A9 (antibody, V domains shown) VH: EVQLVESGGGLVQPGRSLRLSCAASGFTFDDYAMHWVRQVPGKGLEWVSGISWNGGIIGYADSVKGRFTISRDNAKTSLYLQMNSLRAEDTALYYCAKVAGRGDYDYYYGMDVWGQGTTVTVSS VL: QSVLTQPPSVSGAPGQRVTISCTGSSSNIGAGYDVHWYQQLPGTAPKLLIYGNNNRPSGVPDRFSGSKSGTSASLAITGLQAEDEADYYCQSYDSSLSGSVFGGGTKLTVLG",26.3,12.5,15.9,15.1,14.3,15.9,34.8,41.2,62.6
"P2B-2G11 (antibody, V domains shown) VH: EVQLVESGGGLVQPGRSLRLSCAASGFTFDDYAMHWVRQAPGKGLEWVSGISWNGGIIGYADSVKGRFTISRDNAKTSLYLQMNSLKPEDTALYYCAKVAGRGDYDYYYGMDVWGQGTTVTVSS VL: QSVLTQPPSVSGAPGQRVTISCTGSSSNIGAGYDVHWYQQLPGTAPKLLIYGNNNRPSGVPDRFSGSKSGTSASLAITGLQAEDEADYYCQSYDSSLSGSVFGGGTKLTVLG",34.8,3.81,13.9,12.8,,16,19,25.9,64.4
"P2A-1B3 (antibody, V domains shown) VH: EVQLVESGGGLVQPGGSLRLSCVASGFSFNRYSMNWLRQTPRKGLEWLSYISASGNTIYYADSVRGRFTTSRDNAKNTLYLQMNSLRDDDTAVYFCARPAMVREGTYNWFDPWGQGTLVTVSS VL: EIVLTQSPGTLSLSPGERATLSCRASQSVSNDYLAWYQQKPGQAPRLLIYYASSRATGIPDRFSGSGSGTDFTLTISRLEPGDSAVYYCQQYGDSPPITFGQGTRLEIKR [P2A-1B3, listing 1 of 2 here]",16.8,11.5,-0.545,10.2,23.3,22.1,37.2,43.6,74.9
"P2B-2G4 (antibody, V domains shown) VH: QVQLVESGGGVVQPGRSLRLSCAASGFTFSSYGMHWVRQAPGKGLEWVAVIWYDGSNKYYADSVKGRFTISRDNSKNTLYLQMNSLRAEDTAVYYCARGAAMVWLDYWGQGTLVTVSS VL: QSALTQPRSVSGSPGQSVTISCTGTSSDVGGYNYVSWYQQHPGKAPKLMIYDVSKRPSGVPDRFSGSKSGNTASLTISGLQAEDEADYYCCSYAGSYTFVVFGGGTKLTVLG",5.11,-3.33,-8.88,10.4,20.2,35.4,46.4,65.2,74.8

# Biological target: T1, full length spike (S) protein of …
# Experiment: cell-based or functional assay
# Remark: another data set of the same source
row,Binder,"IC50, pseudovirus neutralization [µg/mL]"
1,"P2B-1A1 (antibody, human IgG1, lambda, V domains shown) VH: QVQLQESGPGLVKPSETLSLTCTVSGGSISSYYWSWIRQPPGKGLEWIGYIYYSGSTNYNPSLKSRVTISVDTSKKQFSLKLSSVTAADTAVYYCARLERDWPLDAFDIWGQGTMVTVSS VL: QSALTQPASVSGSPGQSITISCTGTSSDVGGYNYVSWYQQHPGKAPKFMIYDVSKRPSGVSNRFSGSKSGNTASLTISGLQAEDEADYYCSSYTSNNTFAFGGGTKLTVLG",0.687
2,"P2B-1D9 (antibody, human IgG1, lambda, V domains shown) VH: QITLKESGPTLVKPTQTLTLTCTFSGFSLSTSGVGVGWIRQPPGKALEWLALIYWDDDKYYSPSLKSRLTITKDTSKNQVVLTMTNMDPVDTATYYCAHTRILYYGSGSYYDYWGQGTLVTVSS VL: not shown",3.12
3,"P2B-1A10 (antibody, human IgG1, kappa, V domains shown) VH: EVQLVESGGGLIQPGGSLRLSCAASGFTVSSNYMSWVRQAPGKGLEWVSVIYSGGSTYYADSVKGRFTISRDNSKNTLYLQMNSLRAEDTAVYYCAREGPKSITGTAFDIWGQGTIVTVSS VL: DIQMTQSPSSLSASVGDRVTITCQASQDISNYFNWYQQKPGKAPKLLIYDASNLETGVPSRFSGSGSGTDFTFTISSLQPEDIATYYCQQYDNLPMYTFGQGTKLEIKR [P2B-1A10, listing 2 of 2 here]",0.349
4,"P2B-1E4 (antibody, human IgG1, lambda, V domains shown) VH: QITLKESGPTLVKPTQTLTLTCTFSGFSLSTSGVGVGWIRQPPGKALEWLALIYWDDDKRYSPSLKSRLTITKDTSKNQVVLTMTNMDPVDTATYYCAHQIVATIIDYWGQGTLVTVSS VL: QSALTQPASVSGSPGQSITISCTGTSSDVGGYNYVSWYQQHPGKAPKLMIYDVSKRPSGVSNRFSGSKSGNTASLTISGLQAEDEADYYCSSYTSSSVVFGGGTKLTVLG",5.96

# Biological target: full length spike (S) protein of SARS-CoV-2 on pseudovirus (SARS-CoV-2, UniProt P0DTC2 14-1273)
# Experiment: cell-based or functional assay
Binder,Pseudovirus IC50 [µg/mL],Pseudovirus IC80 [µg/mL]
"P2A-1B3 (antibody, V domains shown) VH: EVQLVESGGGLVQPGGSLRLSCVASGFSFNRYSMNWLRQTPRKGLEWLSYISASGNTIYYADSVRGRFTTSRDNAKNTLYLQMNSLRDDDTAVYFCARPAMVREGTYNWFDPWGQGTLVTVSS VL: EIVLTQSPGTLSLSPGERATLSCRASQSVSNDYLAWYQQKPGQAPRLLIYYASSRATGIPDRFSGSGSGTDFTLTISRLEPGDSAVYYCQQYGDSPPITFGQGTRLEIKR [P2A-1B3, listing 2 of 2 here]",16.8,> 50
